# B1: M (antibody, human IgG1, lambda, V domains shown)
# VH: EVQLVQSGAEVKKPGESLRISCKGSGYSFSTYWISWVRQMPGKGLEWMGKIYPGDSYTNYSPSFQGQVTISADKSISTAYLQWSSLKASDTAMYYCARGYGIFDYWGQGTLVTVSS
# VL: SYELTQPPSVSVSPGQTASITCSGDNIGDQYAHWYQQKPGQSPVLVIYQDKNRPSGIPERFSGSNSGNTATLTISGTQAMDEADYYCATYTGFGSLAVFGGGTKLTVLQ
# notes: also called Control M
# B2: R10 (antibody, V domains shown)
# VH: not shown
# VL: DIQMTQSPSSLSASVGDRVTITCRASQSISSYLNWYQQKPGKAPKLLIYAASSLQSGVPSRFSGSGSGTDFTLTISSLQPEDFATYYCQQFDNFPLTFGGGTKVEIK
# notes: Synthetic library clone; Fab on phage in the phage ELISA
# B3: R7 (antibody, V domains shown)
# VH: QVQLLESGGGLVQPGGSLRLSCAASGFTFSSYAMSWVRQAPGKGLEWVSAISGSGGSTYYADSVKGRFTISRDNSKNTLYLQMNSLRAEDTAVYYCARDRAMYHPSFNYWGQGTLVTVSS
# VL: DIQMTQSPSSLSASVGDRVTITCRASQSISSYLNWYQQKPGKAPKLLIYAASSLQSGVPSRFSGSGSGTDFTLTISSLQPEDFATYYCQQFNSYPLTFGGGTKVEIK
# notes: as for B2
# B4: B (antibody, human IgG1, kappa, V domains shown)
# VH: QVQLQQWGAGLLKPSETLSLTCAVYGGSFSGYYWSWIRQSPEKGLEWIGEINHGGYVTYNPSLESRVTISVDTSKNQFSLKLSSVTAADTAVYYCARDYGPGNYDWYFDLWGRGTLVTVSS
# VL: EIVLTQSPATLSLSPGERATLSCRASQSVSSYLAWYQQKPGQAPRLLIYDASNRATGIPARFSGSGSGTDFTLTISSLEPEDFAVYYCQQRSNWPPALTFGGGTKVEIKR
# notes: also called Control B
# How the values were obtained:
# CRD1-2 [1] = biological target: T1, CRD1-2; assay: ELISA, coated CD137-Fc protein 2 µg/mL, antibody 10 or 5 µg/mL, absorbance 620 nm; Non (uncoated well) 0.055
# T1 construct: also called fragmented human CD137-Fc fusion protein CRD1-2
# T1 sequence (chain, as listed by the source limits assumed): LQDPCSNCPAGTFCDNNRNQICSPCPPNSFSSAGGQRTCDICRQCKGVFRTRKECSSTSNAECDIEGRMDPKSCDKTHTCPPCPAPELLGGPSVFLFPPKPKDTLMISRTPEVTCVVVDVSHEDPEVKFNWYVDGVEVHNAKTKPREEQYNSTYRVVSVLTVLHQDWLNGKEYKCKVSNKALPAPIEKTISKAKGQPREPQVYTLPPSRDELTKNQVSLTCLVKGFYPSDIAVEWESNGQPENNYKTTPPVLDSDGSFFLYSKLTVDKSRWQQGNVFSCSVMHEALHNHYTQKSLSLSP
# Experimental: (§1) Fragmented human CD137-Fc fusion proteins were diluted to 2 μg/mL in an aqueous sodium carbonate solution adjusted to pH9.6. Fifty μL of a diluted fragmented human CD137-Fc fusion protein was added individually to each well of a Nunc MaxiSorp flat-bottom 96 well plate (Nunc). This was allowed to stand at 4° C. overnight or longer, and then the plate was allowed to stand at room temperature for one hour so that the plate has the same temperature as the room temperature. The solution containing the fragmented human CD137-Fc fusion protein was removed by tilting, and each well was washed three times with 300 μL of Wash buffer (TBS containing 0.1% Tween20, TaKaRa). Next, 150 μL of blocking buffer (TBS containing 2% BSA) was added to each well, and this was allowed to stand for one hour or more. The blocking buffer was removed by tilting, and each well was washed three times with Wash Buffer in a similar manner to an earlier step. Then, 50 μL of an antibody solution prepared in advance by dilution with TBS to 10 μg/mL or 5 μg/mL was added to each well. This was subjected to a speed of 600 rpm or so for one hour at room temperature to bind the antibody to the immobilized antigen. […] 100 μL of a secondary antibody solution produced by 1000-fold dilution with TBS containing 0.1% Tween20 was added to each well. For the secondary antibody, ANTIBODY ALKALINE PHOSPHATASE CONJUGATE HUMAN IMMUNOGLOBULIN ABSORBED Goat Anti-Human Kappa Alkaline Phosphate from BIOSOURCE was used in the case of antibodies carrying a Kappa chain, and Human Lambda Light Chain Antibody; Goat anti-Human Lambda Light Chain Antibody Alkaline Phosphatase Conjugated from BETHYL LABORATORIES INC. was used in the case of antibodies carrying a Lambda chain. […] Color development was performed using the BluePhos Microwell kit from KPL. After the chromogenic reaction was stopped using the AP stop solution from KPL, the absorbance was measured at 620 nm on an absorptiometer.
# CRD3-4 [2] = biological target: T2, CRD3-4; assay: as above
# T2 construct: also called fragmented human CD137-Fc fusion protein CRD3-4
# T2 sequence (chain, as listed by the source limits assumed): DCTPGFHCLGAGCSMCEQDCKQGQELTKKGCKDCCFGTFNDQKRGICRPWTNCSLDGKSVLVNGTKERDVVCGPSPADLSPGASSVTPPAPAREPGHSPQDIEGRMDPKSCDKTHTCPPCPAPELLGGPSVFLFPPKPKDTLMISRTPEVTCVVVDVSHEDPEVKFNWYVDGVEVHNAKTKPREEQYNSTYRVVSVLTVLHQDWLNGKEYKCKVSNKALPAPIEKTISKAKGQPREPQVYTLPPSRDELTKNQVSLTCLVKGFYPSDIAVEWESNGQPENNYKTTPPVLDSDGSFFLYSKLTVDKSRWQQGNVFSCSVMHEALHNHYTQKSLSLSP
# Experimental: as §1
# CRD1 [3] = biological target: T3, CRD1; assay: as above
# T3 construct: also called fragmented human CD137-Fc fusion protein CRD1
# T3 sequence (chain, as listed by the source limits assumed): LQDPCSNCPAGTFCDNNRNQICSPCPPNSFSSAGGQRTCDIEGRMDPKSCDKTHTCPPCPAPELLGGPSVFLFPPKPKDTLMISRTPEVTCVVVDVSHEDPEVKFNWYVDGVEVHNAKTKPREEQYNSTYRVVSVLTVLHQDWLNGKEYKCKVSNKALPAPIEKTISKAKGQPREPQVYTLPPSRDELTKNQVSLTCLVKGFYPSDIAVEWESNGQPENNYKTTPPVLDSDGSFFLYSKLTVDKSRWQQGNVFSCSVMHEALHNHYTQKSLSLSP
# Experimental: as §1
# CRD3-4 [4] = biological target: T2, CRD3-4; assay: ELISA, coated CD137-Fc protein 2 µg/mL, antibody 10 or 5 µg/mL; absorbance 620 nm divided by that of the uncoated well
# CRD1-2 [5] = biological target: T1, CRD1-2; assay: ELISA, coated CD137-Fc protein 2 µg/mL, antibody 10 or 5 µg/mL, absorbance 620 nm; Non (uncoated well) 0.101
# CRD1-3 [6] = biological target: T4, CRD1-3; assay: as above
# T4 construct: also called fragmented human CD137-Fc fusion protein CRD1-3
# T4 sequence (chain, as listed by the source limits assumed): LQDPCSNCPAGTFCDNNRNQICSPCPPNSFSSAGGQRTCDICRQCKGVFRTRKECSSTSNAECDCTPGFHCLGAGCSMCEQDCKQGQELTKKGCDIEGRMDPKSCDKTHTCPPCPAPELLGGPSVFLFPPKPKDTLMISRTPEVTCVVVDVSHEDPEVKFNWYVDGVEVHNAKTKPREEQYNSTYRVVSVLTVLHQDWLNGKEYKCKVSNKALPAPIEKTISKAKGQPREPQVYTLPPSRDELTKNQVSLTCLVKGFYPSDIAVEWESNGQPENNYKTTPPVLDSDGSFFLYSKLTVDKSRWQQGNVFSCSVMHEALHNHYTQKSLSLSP
# CRD2-3 [7] = biological target: T5, CRD2-3; assay: as above
# T5 construct: also called fragmented human CD137-Fc fusion protein CRD2-3
# T5 sequence (chain, as listed by the source limits assumed): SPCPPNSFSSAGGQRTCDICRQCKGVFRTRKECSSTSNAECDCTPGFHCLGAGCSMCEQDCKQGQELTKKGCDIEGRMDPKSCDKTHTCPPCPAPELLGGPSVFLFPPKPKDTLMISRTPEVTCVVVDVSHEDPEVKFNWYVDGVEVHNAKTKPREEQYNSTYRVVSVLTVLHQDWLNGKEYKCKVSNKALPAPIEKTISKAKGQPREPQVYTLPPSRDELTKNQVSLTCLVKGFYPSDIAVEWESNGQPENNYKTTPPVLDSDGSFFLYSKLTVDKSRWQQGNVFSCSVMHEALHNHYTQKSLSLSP
# CRD3-4 [8] = biological target: T2, CRD3-4; assay: as above
# [9] = biological target: full-length human CD137-Fc fusion protein (human); assay: as above
# Sequence of full-length human CD137-Fc fusion protein (human) (chain, as listed by the source limits assumed): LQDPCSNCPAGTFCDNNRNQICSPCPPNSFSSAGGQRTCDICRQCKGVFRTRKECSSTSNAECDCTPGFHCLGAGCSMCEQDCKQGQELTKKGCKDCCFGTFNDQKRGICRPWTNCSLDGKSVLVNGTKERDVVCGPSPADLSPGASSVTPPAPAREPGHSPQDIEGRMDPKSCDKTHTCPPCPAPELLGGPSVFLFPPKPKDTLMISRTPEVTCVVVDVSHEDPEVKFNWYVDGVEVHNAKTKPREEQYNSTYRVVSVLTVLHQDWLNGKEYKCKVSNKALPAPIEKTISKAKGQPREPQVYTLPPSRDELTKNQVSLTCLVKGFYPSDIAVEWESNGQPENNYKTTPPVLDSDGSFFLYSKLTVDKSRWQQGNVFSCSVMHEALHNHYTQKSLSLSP
# CRD2-4 [10] = biological target: T6, CRD2-4; assay: as above
# T6 construct: also called fragmented human CD137-Fc fusion protein CRD2-4
# T6 sequence (chain, as listed by the source limits assumed): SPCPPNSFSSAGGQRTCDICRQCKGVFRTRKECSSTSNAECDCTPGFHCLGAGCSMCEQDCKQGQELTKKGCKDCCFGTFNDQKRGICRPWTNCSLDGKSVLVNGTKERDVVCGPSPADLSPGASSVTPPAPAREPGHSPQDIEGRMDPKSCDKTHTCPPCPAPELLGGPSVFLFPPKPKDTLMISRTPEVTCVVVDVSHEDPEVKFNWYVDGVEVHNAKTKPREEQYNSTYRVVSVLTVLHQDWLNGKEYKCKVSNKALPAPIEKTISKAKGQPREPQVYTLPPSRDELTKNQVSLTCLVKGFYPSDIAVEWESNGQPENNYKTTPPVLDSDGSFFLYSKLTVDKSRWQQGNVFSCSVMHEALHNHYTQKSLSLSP
# CRD1-2 [11] = biological target: T1, CRD1-2; assay: ELISA, coated CD137-Fc protein 2 µg/mL, antibody 10 or 5 µg/mL; absorbance 620 nm divided by that of the uncoated well
# CRD1-3 [12] = biological target: T4, CRD1-3; assay: as above
# CRD2-3 [13] = biological target: T5, CRD2-3; assay: as above
# [14] = biological target: full-length human CD137-Fc fusion protein (human); assay: as above
# CRD2-4 [15] = biological target: T6, CRD2-4; assay: as above
# CRD1-2 [16] = biological target: T1, CRD1-2; assay: ELISA, coated CD137-Fc protein 2 µg/mL, antibody 10 or 5 µg/mL, absorbance 620 nm; Non (uncoated well) 0.4435
# CRD1-3 [17] = biological target: T4, CRD1-3; assay: as above
# CRD2-3 [18] = biological target: T5, CRD2-3; assay: as above
# CRD3-4 [19] = biological target: T2, CRD3-4; assay: as above
# CRD1 [20] = biological target: T3, CRD1; assay: as above
# [21] = biological target: full-length human CD137-Fc fusion protein (human); assay: as above
# CRD2-4 [22] = biological target: T6, CRD2-4; assay: as above
# CRD1 [23] = biological target: T3, CRD1; assay: ELISA, coated CD137-Fc protein 2 µg/mL, antibody 10 or 5 µg/mL; absorbance 620 nm divided by that of the uncoated well
# CRD1-2 [24] = biological target: T1, CRD1-2; assay: ELISA, coated CD137-Fc protein 2 µg/mL, antibody 10 or 5 µg/mL, absorbance 620 nm; Non (uncoated well) 0.049
# CRD1-3 [25] = biological target: T4, CRD1-3; assay: as above
# CRD2-3 [26] = biological target: T5, CRD2-3; assay: as above
# CRD3-4 [27] = biological target: T2, CRD3-4; assay: as above
# CRD1 [28] = biological target: T3, CRD1; assay: as above
# [29] = biological target: full-length human CD137-Fc fusion protein (human); assay: as above
# CRD2-4 [30] = biological target: T6, CRD2-4; assay: as above
binder,measurement,setting,value
B1,ELISA color development level,CRD1-2 [1],0.085
same,ELISA color development level,CRD3-4 [2],2.26
same,ELISA color development level,CRD1 [3],0.093
same,Ratio with respect to Non-Coating,CRD3-4 [4],41.1
B2,ELISA color development level,CRD1-2 [5],0.222
same,ELISA color development level,CRD1-3 [6],2.46
same,ELISA color development level,CRD2-3 [7],2.64
same,ELISA color development level,CRD3-4 [8],2.75
same,ELISA color development level,[9],2.59
same,ELISA color development level,CRD2-4 [10],2.46
same,Ratio with respect to Non-Coating,CRD1-2 [11],2.2
same,Ratio with respect to Non-Coating,CRD1-3 [12],24.4
same,Ratio with respect to Non-Coating,CRD2-3 [13],26.1
same,Ratio with respect to Non-Coating,CRD3-4 [4],27.2
same,Ratio with respect to Non-Coating,[14],25.6
same,Ratio with respect to Non-Coating,CRD2-4 [15],24.3
B3,ELISA color development level,CRD1-2 [16],0.814
same,ELISA color development level,CRD1-3 [17],2.23
same,ELISA color development level,CRD2-3 [18],2.52
same,ELISA color development level,CRD3-4 [19],2.63
same,ELISA color development level,CRD1 [20],0.61
same,ELISA color development level,[21],1.92
same,ELISA color development level,CRD2-4 [22],2.19
same,Ratio with respect to Non-Coating,CRD1-2 [11],1.8
same,Ratio with respect to Non-Coating,CRD1-3 [12],5
same,Ratio with respect to Non-Coating,CRD2-3 [13],5.7
same,Ratio with respect to Non-Coating,CRD3-4 [4],5.9
same,Ratio with respect to Non-Coating,CRD1 [23],1.4
same,Ratio with respect to Non-Coating,[14],4.3
same,Ratio with respect to Non-Coating,CRD2-4 [15],4.9
B4,ELISA color development level,CRD1-2 [24],2.58
same,ELISA color development level,CRD1-3 [25],2.33
same,ELISA color development level,CRD2-3 [26],0.089
same,ELISA color development level,CRD3-4 [27],0.074
same,ELISA color development level,CRD1 [28],1.75
same,ELISA color development level,[29],2.67
same,ELISA color development level,CRD2-4 [30],0.097
same,Ratio with respect to Non-Coating,CRD1-2 [11],52.7
same,Ratio with respect to Non-Coating,CRD1-3 [12],47.5
same,Ratio with respect to Non-Coating,CRD2-3 [13],1.8
same,Ratio with respect to Non-Coating,CRD3-4 [4],1.5
same,Ratio with respect to Non-Coating,CRD1 [23],35.7
same,Ratio with respect to Non-Coating,[14],54.6
same,Ratio with respect to Non-Coating,CRD2-4 [15],2

# — patent US20170022287A1 (Chugai, published 2017)
